From patent US20080292640A1

Molecular target: IL-1 receptor (human) (UniProt P14778)
Test: cell-based or functional assay

Sequence of UniProt P14778 (P14778 18-569): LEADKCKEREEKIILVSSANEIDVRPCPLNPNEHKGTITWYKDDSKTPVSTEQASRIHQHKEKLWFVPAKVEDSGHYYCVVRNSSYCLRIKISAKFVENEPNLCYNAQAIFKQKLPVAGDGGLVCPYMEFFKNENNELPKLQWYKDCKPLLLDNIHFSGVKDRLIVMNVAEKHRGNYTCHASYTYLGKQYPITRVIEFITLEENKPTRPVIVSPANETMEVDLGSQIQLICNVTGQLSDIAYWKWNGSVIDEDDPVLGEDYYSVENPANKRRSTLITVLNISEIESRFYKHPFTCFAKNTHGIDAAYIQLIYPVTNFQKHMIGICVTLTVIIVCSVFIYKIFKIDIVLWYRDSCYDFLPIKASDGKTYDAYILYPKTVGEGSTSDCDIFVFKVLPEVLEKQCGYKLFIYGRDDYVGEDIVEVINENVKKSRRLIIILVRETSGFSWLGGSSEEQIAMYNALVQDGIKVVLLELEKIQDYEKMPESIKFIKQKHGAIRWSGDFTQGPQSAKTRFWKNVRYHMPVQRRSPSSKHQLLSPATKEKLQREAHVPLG

IC50, inhibition of IL-1β induced production of IL-8 in human whole blood (100 pM rhIL-1β): 53.4 pM
Substance: Kineret® (anakinra) (from UniProt P18510 26-177) (ligand)
